What was measured:
[1] = Pilot dose studies of CDX3379-MMAE ADC (response to reviewers); assay type: in vivo
Description: compares to MMAE in immune-competent cancer models. We have now tested the hypothesis raised by the Reviewer head on and present new data (Fig. 3h). First, we successfully synthesized a CDX3379-MMAF ADC (Supplementary Figs. 2c & 2d). Then, we tested CDX3379-MMAE + IR to […] directly in B16 […]
these findings, we hypothesize that MMAE mediated bystander effects improve radiosensitized tumor control when compared to MMAF tumor cell radiosensitization and continue with MMAE as our lead radiosensitizing […]
Comment 2: “authors claim that in syngeneic model MMAE lacked therapeutic efficacy irrespective of the coupled tumor-directed delivery vehicle. However, comparison here is misleading, as they compare MMAE activity coupled to an antibody vs a penetrating peptide. Instead, in order to fully address the concept that auristatin MMAE has limited antitumor activity in a syngeneic model a more appropriate control should be used, that is a MMAE coupled to a different mAb targeting other antigen (receptor). In addition, this would reinforce the evidence about the potential of ADC therapy in combination with IR in immunocompetent mouse […]
Response: In principle, we agree with the sentiment raised by the Reviewer to have another ADC targeting a different cell surface receptor. […]

[2] = tested on: CAL27 and Detroit 562 tumor xenografts; settings: immune-deficient mice with HER3 expressing human tumor xenografts
Description: (§1) All animal work was done in compliance with the University of California San Diego Institutional Animal Use and Care Committee under protocol #S15290. Mice were housed in individually ventilated and micro-isolator cages supplied with acidified water and fed 5053 irradiated PicoLab Rodent Diet 20. Temperature for laboratory mice in housing was 18–23 °C with humidity 40–60%. Housing room is maintained on a 12-h light/dark cycle. […] For imaging, mice were anesthetized (1:1 mixture of 100 mg/ml of ketamine and 5 mg/ml of midazolam). Animals were imaged using a Maestro Small Animal Imager (CRI) with excitation filter of 607/36 and 633 nm long pass emission filter with dichroic filter tuned to 670 nm for Cy5 images only. Imaging was done both with skin on and after skin removal to decrease autofluorescence and scattering. Exposure time for Cy5 signal capture for tumor models was as follows: CAL27 for 800 ms, MOC1 for 200 ms and MOC2 for 1500 ms.
(§2) Source data are provided in Source Data file.

[3] = tested on: MOC1, MOC2 and LL/2 tumors; settings: immune-competent mice, not in HER3 negative LL/2 tumors
Description: as §1, §2

[4] = Tumor drug measurement (MMAE by LC-MS/MS) after ACPP-MMAE; assay type: in vivo, mouse; settings: LL/2 and B16 tumors, 10 nmoles ACPP-MMAE i.v.
Description: For CDX3379-MMAE drug measurements, 6-week-old female NOD SCID (University of California San Diego Animal Care Program) were injected orthotopically into the tongue with 150,000 CAL27 PIK3CA H1047R expressing cells in 20 µl of DMEM. After 10 days, mice were intravenously (i.v.) injected through the tail vein with 2.5 nmole of CDX3379-MMAE in 50 µl of PBS. […] Tumors were excised on days indicated in figure legends, weighed, and homogenized in 10 v/w of 2% acetic acid in 1:1 acetonitrile:water with a point sonicator (Fisher Scientific) using an amplitude range of 5–15% for 20 s on ice. Homogenates were centrifuged ([…], 10 min), supernatants collected for drug concentration measurements using LC–MS/MS. Drug concentration was determined by LC–MS/MS with Luna-2 C18 column and Agilent Trap XCT mass spectrometer. For MMAE tissue concentrations, integrated ion currents for m/z 682.4, 496.4 and m/z 686.4, 506.4 extracted from fragmented m/z 740.4 and 718.4, respectively, were combined. The total ion current was fit to a standard curve generated for each drug to quantitate tissue drug concentration.

Substance | anti-tumor activity in pilot studies ([1]; 1 nmole CDX3379-MMAE) | anti-tumor activity in pilot studies ([1]; 5 nmoles CDX3379-MMAE) | localization of i.v. injected Cy5-labeled ADC [2] | localization of i.v. injected Cy5-labeled ADC [3] | release of conjugated drug warhead in tumors [4]
CDX3379-MMAE: anti-HER3 antibody CDX3379 with 4 MMAE per antibody via MC-VC-PABC linker, labeled with Cy5 | ineffective | anti-tumor activity | localized to tumor bearing hindlimbs | localized to HER3 expressing murine syngeneic tumors | –
cyclo(RGD)fc-MC-HN-peg8-e9-oPLGC(Me)AG-r9-c-(MC-VC-PABC-MMAE)-CONH2 [ACPP-MMAE] | – | – | – | – | efficiently released its conjugated drug warhead equally in LL/2 and B16 tumors

— paper PMC9256669, “Monomethyl auristatin antibody and peptide drug conjugates for trimodal cancer chemo-radio-immunotherapy” (Nature Communications, 2022)
